Measured values: publication PMC12701072, “DNA Wrapping by a tetrameric bacterial histone”

Experiments:
[1] = target: HLp from Leptospira perolatii (Leptospira perolatii); assay: crystal structure; DNA-free HLp, 1.30 Å, molecular replacement; dimer in the asymmetric unit, tetramer by crystallographic symmetry
[2] = target: HLp from Leptospira perolatii (Leptospira perolatii); assay: SEC-MALS; HLp alone; Superdex 75 Increase 10/300 GL, 25 mM Tris, 50 mM NaCl, 50 mM KCl, pH 7.5; samples incubated at 37 °C for 10 min; oligomer in solution
[3] = target: HLp from Leptospira perolatii (Leptospira perolatii); assay: crystal structure; HLp-DNA_1: HLp co-crystallized with the 30-bp-GC40 DNA fragment, 2.10 Å; dimer in the asymmetric unit, tetramer by crystallographic symmetry
[4] = target: HLp from Leptospira perolatii (Leptospira perolatii); assay: crystal structure; HLp-DNA_2: HLp co-crystallized with the 30-bp-GC40 DNA fragment, 1.90 Å; monomer in the asymmetric unit, tetramer by crystallographic symmetry
[5] = target: HLp from Leptospira perolatii (Leptospira perolatii); assay: SEC-MALS; HLp incubated with the 30-bp-GC40 DNA fragment at a protein-to-DNA molar ratio of 2:1, 37 °C for 10 min; Superdex 75 Increase 10/300 GL, 25 mM Tris, 50 mM NaCl, 50 mM KCl, pH 7.5
[6] = target: T1, HLp (Leptospira perolatii, UniProt A0A2M9ZN55 1-63); assay: SEC-MALS; complex 69.2 +/- 5.7 kDa: one tetramer with two duplexes; EMSA: 25 mM Tris pH 8.0, 50 mM NaCl, 50 mM KCl, 37 C 10 min; MST: 20 mM Tris pH 8.0, 150 mM NaCl, measured at 25 C (HLp 10 nM DNA, HMfB 20 nM DNA); details: protein: recombinant; tags: N-terminal His6, cleaved with TEV protease; chain copies: 4; blunt
T1 sequence: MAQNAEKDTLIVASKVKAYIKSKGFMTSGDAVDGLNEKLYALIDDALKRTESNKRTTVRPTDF

[7] = target: HMfB (Methanothermus fervidus, UniProt P19267 1-69); assay: MST; EMSA: 25 mM Tris pH 8.0, 50 mM NaCl, 50 mM KCl, 37 C 10 min; MST: 20 mM Tris pH 8.0, 150 mM NaCl, measured at 25 C (HLp 10 nM DNA, HMfB 20 nM DNA); details: protein: recombinant; chain copies: 4; label: 5'-Cy5 on strand 1; blunt
[8] = target: T1, HLp; assay: MST; 20 mM Tris pH 8.0, 150 mM NaCl; EMSA: 25 mM Tris pH 8.0, 50 mM NaCl, 50 mM KCl, 37 C 10 min; MST: 20 mM Tris pH 8.0, 150 mM NaCl, measured at 25 C (HLp 10 nM DNA, HMfB 20 nM DNA); details: protein: recombinant; tags: N-terminal His6, cleaved with TEV protease; chain copies: 4; label: 5'-Cy5 on strand 1; blunt

Chain of HMfB (P19267 whole entry): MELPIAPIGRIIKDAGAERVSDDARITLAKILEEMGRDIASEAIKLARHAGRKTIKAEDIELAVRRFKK

## HLp from Leptospira perolatii (natural protein)
[1]
  stoichiometry N: 4
[2]
  stoichiometry N: 4
[3]
  stoichiometry N: 4
[4]
  stoichiometry N: 4
[5]
  stoichiometry N: 4

B1: 30-bp-GC40 (dsDNA)
DNA 1: TTTAAAGCCGTTTAAAGCCGTTTAAAGCCG
DNA 2: CGGCTTTAAACGGCTTTAAACGGCTTTAAA
[6]
  binding result: binds

B2: 80-bp-GC40 [Cy5] (dsDNA)
DNA 1: TTTAAAGCCGTTTAAAGCCGTTTAAAGCCGTTTAAAGCCGTTTAAAGCCGTTTAAAGCCGTTTAAAGCCGTTTAAAGCCG
DNA 2: CGGCTTTAAACGGCTTTAAACGGCTTTAAACGGCTTTAAACGGCTTTAAACGGCTTTAAACGGCTTTAAACGGCTTTAAA
[7]
  Kd: 310 ± 80 nM
[8]
  Kd: 1240 ± 140 nM

B3: 80-bp DNA [Cy5] (dsDNA)
DNA 1: CCGTACTGTCGTCTGCGGCCTTTGATTATCAATTAAAGCGTTCTACGGCGTTTTTGATCGCTCAACGTGCGGAGCTAGAT
DNA 2: ATCTAGCTCCGCACGTTGAGCGATCAAAAACGCCGTAGAACGCTTTAATTGATAATCAAAGGCCGCAGACGACAGTACGG
[7]
  Kd: 580 ± 130 nM
[8]
  Kd: 3180 ± 1060 nM
